# Assay results published in publication PMC3878766 (2010).
# B1: Tolloid-like 1 (TLL-1) (protein)
# chain: AATSRTERIWPGGVIPYVIGGNFTGSQRAMFKQAMRHWEKHTCVTFIERSDEESYIVFTYRPCGCCSYVGRRGNGPQAISIGKNCDKFGIVVHELGHVIGFWHEHTRPDRDNHVTIIRENIQPGQEYNFLKMEPGEVNSLGERYDFDSIMHYARNTFSRGMFLDTILPSRDDNGIRPAIGQRTRLSKGDIAQARKLYRCPACGETLQESNGNLSSPGFPNGYPSYTHCIWRVSVTPGEKIVLNFTTMDLYKSSLCWYDYIEVRDGYWRKSPLLGRFCGDKLPEVLTSTDSRMWIEFRSSSNWVGKGFAAVYEAICGGEIRKNEGQIQSPNYPDDYRPMKECVWKITVSESYHVGLTFQSFEIERHDNCAYDYLEVRDGTSENSPLIGRFCGYDKPEDIRSTSNTLWMKFVSDGTVNKAGFAANFFKEEDECAKPDRGGCEQRCLNTLGSYQCACEPGYELGPDRRSCEAACGGLLTKLNGTITTPGWPKEYPPNKNCVWQVVAPTQYRISVKFEFFELEGNEVCKYDYVEIWSGLSSESKLHGKFCGAEVPEVITSQFNNMRIEFKSDNTVSKKGFKAHFFSDKDECSKDNGGCQHECVNTMGSYMCQCRNGFVLHDNKHDCKEAECEQKIHSPSGLITSPNWPDKYPSRKECTWEISATPGHRIKLAFSEFEIEQHQECAYDHLEVFDGETEKSPILGRLCGNKIPDPLVATGNKMFVRFVSDASVQRKGFQATHSTECGGRLKAESKPRDLYSHAQFGDNNYPGQVDCEWLLVSERGSRLELSFQTFEVEEEADCGYDYVELFDGLDSTAVGLGRFCGSGPPEEIYSIGDSVLIHFHTDDTINKKGFHIRYKSIRYPDTTHTKK
# modifications: Ca2+ (0.5 mM CaCl2), V5-His6 tag
# Target: T1, Tolloid-like 1 (TLL-1) (Homo sapiens, UniProt O43897)
# T1 chain: B1 chain
# Experiment: sedimentation equilibrium AUC
binder,measurement,value
B1,Kd,2 nM
